From patent publication CN111690062A (UNIV FUDAN, dated 2020)

Target: T1, Plasmodium falciparum PfRh5 protein (recombinant, expressed in Sf9 insect cells) (Plasmodium falciparum (恶性疟原虫), UniProt Q8IFM5 25-526, limits assumed)
T1 construct: In the BLI assay the protein was amine-coupled to AR2G sensors; also called 恶性疟PfRh5蛋白; PfRh5蛋白
T1 sequence (looked up): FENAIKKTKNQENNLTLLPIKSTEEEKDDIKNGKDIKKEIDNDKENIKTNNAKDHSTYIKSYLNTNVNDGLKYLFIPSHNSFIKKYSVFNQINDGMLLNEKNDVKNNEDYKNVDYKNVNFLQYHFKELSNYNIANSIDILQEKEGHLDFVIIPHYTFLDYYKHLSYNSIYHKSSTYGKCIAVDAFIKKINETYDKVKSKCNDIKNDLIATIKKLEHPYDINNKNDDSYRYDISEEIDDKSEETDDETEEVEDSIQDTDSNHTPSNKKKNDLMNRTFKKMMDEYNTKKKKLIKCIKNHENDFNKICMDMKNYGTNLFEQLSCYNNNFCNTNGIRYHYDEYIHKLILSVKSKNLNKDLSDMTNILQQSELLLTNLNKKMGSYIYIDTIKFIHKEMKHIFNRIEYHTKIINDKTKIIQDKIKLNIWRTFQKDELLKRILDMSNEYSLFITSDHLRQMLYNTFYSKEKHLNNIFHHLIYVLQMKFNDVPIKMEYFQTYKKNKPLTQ
Assay: BLI (Octet-Red96) at 37°C; PfRh5 amine-coupled to AR2G sensor; G9 as analyte at 1.2-100 nM in 3-fold dilutions; 1:1 fit

B1: G9 antigen-binding fragment (Fab), fully human, against Plasmodium falciparum PfRh5 (Fab, V domains shown)
VH: EVQLVQSGGGLVQPGGSLRLSCAASGFTFDDYAMHWVRQAPGKGLEWVAVIWYDGSNKYYADSVKGRFTISRDNSKNTLYLQMNSLRAEDTAVYYCAREHIDDPAMVPSPPAFDIWGQGTMVTVSS
VL: EIVLTQSPATLSLSPGERATLSCRASQSVSSYLAWYQQKPGQAPRLLIYDASNRATGIPARFSGSGSGTDFTLTISSLEPEDFATYYCQQSYSTPRTFGQGTKLEIK
notes: also called 抗体G9; 克隆G9
- Kd: 4.9 nM
